Data published in patent US7446182 (University of Texas, dated 2008).
Several values for one entry are separate records, joined by “and”; a condition that tells them apart may be missing. Equal values may be shown once.

Assays:
[1] = target: T1, Bacillus anthracis protective antigen (PA), 83 kDa polypeptide (Bacillus anthracis, UniProt P13423 30-764)
[2] = target: T1, Bacillus anthracis protective antigen …; remark: listed apart in the source
[3] = target: T1, Bacillus anthracis protective antigen …; remark: listed apart in the source

T1 sequence (P13423 30-764 limits assumed): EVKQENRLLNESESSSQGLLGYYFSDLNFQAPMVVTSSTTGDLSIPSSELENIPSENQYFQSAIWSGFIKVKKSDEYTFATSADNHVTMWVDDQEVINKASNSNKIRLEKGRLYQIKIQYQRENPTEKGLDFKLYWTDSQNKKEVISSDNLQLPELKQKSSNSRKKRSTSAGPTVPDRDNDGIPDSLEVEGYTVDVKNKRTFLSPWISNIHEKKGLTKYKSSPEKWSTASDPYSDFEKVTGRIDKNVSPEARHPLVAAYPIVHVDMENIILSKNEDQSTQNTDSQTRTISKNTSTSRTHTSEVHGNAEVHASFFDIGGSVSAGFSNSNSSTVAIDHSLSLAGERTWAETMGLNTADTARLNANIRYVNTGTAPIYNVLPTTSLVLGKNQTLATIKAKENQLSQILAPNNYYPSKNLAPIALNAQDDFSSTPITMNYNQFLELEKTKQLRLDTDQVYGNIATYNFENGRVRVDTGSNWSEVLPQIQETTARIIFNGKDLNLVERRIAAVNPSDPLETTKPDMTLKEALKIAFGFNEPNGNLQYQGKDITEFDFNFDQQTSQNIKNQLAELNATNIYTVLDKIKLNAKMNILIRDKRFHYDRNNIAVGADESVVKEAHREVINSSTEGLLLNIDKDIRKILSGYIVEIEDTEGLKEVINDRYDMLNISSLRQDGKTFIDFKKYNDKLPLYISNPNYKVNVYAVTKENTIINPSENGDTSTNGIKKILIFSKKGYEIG

B1: A2E scFv (scFv)
scFv: DIQMTQTTSSLSASLGDRVTISCRASQDIRNYLNWYQQKPDGTVKLLIYYTSRLQPGVPSRFSGSGSGTDYSLTISNQEQEDIGTYFCQQGNTLPWTGFFFTKLEIKRGGGGSGGGGSGGGGSGGGGSEVQLQQSGPELVKPGASVKISCKIDSGYAFSSSWMNWVKQRFGQGLEWIGRIYPGDGDTNYNGKFKGKATLTADKSSSTAYMQLSSLTSVDSAVYFCARSGLLRYAMDYWGQGTSVTVSS
EC50 (read off the curve) [1]: ~0.02 µg/mL and ~0.05 µg/mL | Kd [2]: 4 nM | koff [2]: 0.001 s⁻¹ | kon [2]: 300000 M⁻¹ s⁻¹ | fold higher affinity than the 14B7 scFv [3]: 3 fold | fold lower equilibrium dissociation constant than 14B7 [3]: 3 fold
